Assay [1] addresses T1, hPDL1(19-239)-TVMV-His (human, UniProt Q9NZQ7 19-239).
T1 construct: The text says amino acids 18-239, the construct name says 19-239; also called PD-L1-His; PD-L1-TVMV-His
The assay is described as follows: HTRF competition, PD-1-Ig binding to PD-L1-His.
T1 sequence (Q9NZQ7 other isoform, or with tags, fused parts or gaps limits assumed): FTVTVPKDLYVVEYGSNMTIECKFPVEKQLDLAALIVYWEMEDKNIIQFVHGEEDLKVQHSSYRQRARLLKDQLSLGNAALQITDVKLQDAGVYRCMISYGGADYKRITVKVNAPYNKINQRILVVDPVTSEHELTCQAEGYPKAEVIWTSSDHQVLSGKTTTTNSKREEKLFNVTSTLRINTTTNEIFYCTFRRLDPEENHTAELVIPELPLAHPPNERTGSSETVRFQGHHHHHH

The target of assay [2] is T2, human PD-L1 expressed on cells (human, UniProt Q9NZQ7 19-290).
T2 construct: whole, on cells; In the CMV recall assay PD-L1 is the endogenous protein on donor PBMC; also called hPD-L1; LK35.2-hPD-L1
The assay can be described thus: cell binding assay, PE-labeled PD-1-Ig on cells over-expressing human PD-L1, high-content imaging.

Assay [3] addresses T3, hPDL1(19-239)-TVMV-His (human, UniProt Q9NZQ7 19-239).
T3 construct: The text says amino acids 18-239, the construct name says 19-239; also called PD-L1-His; PD-L1-TVMV-His
The assay is described as follows: HTRF competition, inhibitor titrated against PD-1-Ig binding to PD-L1-His. The procedure: (§1) All binding studies were performed in an HTRF assay buffer consisting of dPBS supplemented with 0.1% (w/v) bovine serum albumin and 0.05% (v/v) Tween-20. […] PD-L1 fusion proteins from either human, cynomologous macaques, or mouse were used. HTRF detection was achieved using europium crypate-labeled anti-Ig monoclonal antibody (1 nM final) and allophycocyanin (APC) labeled anti-His monoclonal antibody (20 nM final). Antibodies were diluted in HTRF detection buffer and 5 μl was dispensed on top of binding reaction. The reaction was allowed to equilibrate for 30 minutes and signal (665 nm/620 nm ratio) was obtained using an EnVision fluorometer. […]
For orientation: TR-FRET usually uses a lanthanide donor and a delayed reading to cut background.
T3 sequence (Q9NZQ7 other isoform, or with tags, fused parts or gaps limits assumed): as above

The target in assay [4] is human PD-L1 on cells (human, UniProt Q9NZQ7 19-290). The assay is described as follows: cell-based or functional assay.
Target sequence in this assay (Q9NZQ7 19-290): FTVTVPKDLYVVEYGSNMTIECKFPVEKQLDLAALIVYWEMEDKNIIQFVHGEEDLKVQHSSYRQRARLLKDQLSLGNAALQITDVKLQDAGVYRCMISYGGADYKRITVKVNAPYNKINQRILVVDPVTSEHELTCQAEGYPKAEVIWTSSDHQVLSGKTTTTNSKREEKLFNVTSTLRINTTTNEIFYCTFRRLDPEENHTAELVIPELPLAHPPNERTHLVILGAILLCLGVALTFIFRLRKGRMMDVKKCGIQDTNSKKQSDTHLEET
Assay [5] concerns the target T4, hPDL1(19-239)-TVMV-His (human, UniProt Q9NZQ7 19-239).
T4 construct: The construct name says 19-239, the running text says amino acids 18-239; Expressed in HEK293T cells; also called PD-L1-His; PD-L1-TVMV-His
The assay can be described thus: HTRF competition, PD-1-Ig (20 nM) binding to human PD-L1-His (10 nM).
T4 sequence (Q9NZQ7 other isoform, or with tags, fused parts or gaps limits assumed): as the sequence (Q9NZQ7 other isoform, or with tags, fused parts or gaps limits assumed) above

Assay [6] deals with T3, hPDL1(19-239)-TVMV-His. The assay can be described thus: HTRF competition, inhibitor titrated against PD-1-Ig binding to PD-L1-His. The procedure:
as §1
HTRF Experiments were performed essentially as outlined supra. Variant macrocyclic peptides were created as outlined herein.
The source holds these as a separate data set.

Assay [7] addresses T5, human PD-L1 on cells (human, UniProt Q9NZQ7 19-290). The assay can be described thus: cell-based or functional assay. The source holds these as a separate data set.
T5 sequence (Q9NZQ7 19-290): as the sequence (Q9NZQ7 19-290) above
Assay [8] deals with T6, hPDL1(19-239)-TVMV-His (human, UniProt Q9NZQ7 19-239).
T6 construct: The text says amino acids 18-239, the construct name says 19-239; The entry includes the TVMV site and the His tag; also called PD-L1-His; PD-L1-TVMV-His
The assay can be described thus: HTRF competition of PD-1-Ig binding to PD-L1-His.
T6 sequence (Q9NZQ7 other isoform, or with tags, fused parts or gaps limits assumed): as the sequence (Q9NZQ7 other isoform, or with tags, fused parts or gaps limits assumed) above

The target in assay [9] is T5, human PD-L1 on cells. The assay is described as follows: cell binding assay (CBA): PE-labelled PD-1-Ig on cells over-expressing human PD-L1.

What is called IC50 is the concentration that gives 50% inhibition. Read a high IC50 as weaker potency.

Starred links: 1 amine or outer side, 2 acyl side, 3 side chain; linkers in the order of their positions; H or OH if unused. Positions of bridges follow the written chain, without caps; N, C: chain ends. Non-standard residues stand in square brackets, D forms with d. Primed or numbered codes have the meaning given here. trans‑Pro(4-(4-fluorobenzyl)) = trans-4-(4-fluorobenzyl)-L-proline, O=C([C@@H]1C[C@@H](Cc2ccc(F)cc2)CN1[*:1])[*:2]; Pro(cis-4-Ph) = O=C(O)[C@@H]1C[C@H](c2ccccc2)CN1; NMeF = CN[C@@H](Cc1ccccc1)C(=O)O; PEG12′ = C-terminal PEG12 spacer; NMeNle = CCCC[C@H](NC)C(=O)O; NMeA = CN[C@@H](C)C(=O)O; Dab = NCC[C@H](N)C(=O)O; Sar = CNCC(=O)O

T2 sequence (Q9NZQ7 19-290): as the sequence (Q9NZQ7 19-290) above

B1: Example 3526 (peptide)
peptide: FFXGDVFYGYYLCG
HELM: PEPTIDE1{[O=C(C[*:3])[*:2]].F.[meF].[CCCC[C@@H](C(=O)[*:2])N(C)[*:1]].[Sar].D.V.[meF].Y.[Sar].Y.Y.L.C.G.[am]}$PEPTIDE1,PEPTIDE1,1:R3-14:R3$$$V2.0
SMILES: CCCC[C@H]1C(=O)N(C)CC(=O)N[C@@H](CC(=O)O)C(=O)N[C@@H](C(C)C)C(=O)N(C)[C@@H](Cc2ccccc2)C(=O)N[C@@H](Cc2ccc(O)cc2)C(=O)N(C)CC(=O)N[C@@H](Cc2ccc(O)cc2)C(=O)N[C@@H](Cc2ccc(O)cc2)C(=O)N[C@@H](CC(C)C)C(=O)N[C@H](C(=O)NCC(N)=O)CSCC(=O)N[C@@H](Cc2ccccc2)C(=O)N(C)[C@@H](Cc2ccccc2)C(=O)N1C
notes: ClAc-Phe-[N-Me]Phe-[N-Me]Nle-Sar-Asp-Val-[N-Me]Phe-Tyr-Sar-Tyr-Tyr-Leu-Cys-Gly-NH2, cyclised
For B1, the IC50 with hPDL1(19-239)-TVMV-His [1] came out at 132 nM; in assay [2] it was 629 nM.

B2: Compound No. 71 (peptide)
peptide: FFXGDVFYGWYLCG
HELM: PEPTIDE1{[O=C(C[*:3])[*:2]].F.[meF].[CCCC[C@@H](C(=O)[*:2])N(C)[*:1]].[Sar].D.V.[meF].Y.[Sar].W.Y.L.C.G.[am]}$PEPTIDE1,PEPTIDE1,1:R3-14:R3$$$V2.0
SMILES: CCCC[C@H]1C(=O)N(C)CC(=O)N[C@@H](CC(=O)O)C(=O)N[C@@H](C(C)C)C(=O)N(C)[C@@H](Cc2ccccc2)C(=O)N[C@@H](Cc2ccc(O)cc2)C(=O)N(C)CC(=O)N[C@@H](Cc2c[nH]c3ccccc23)C(=O)N[C@@H](Cc2ccc(O)cc2)C(=O)N[C@@H](CC(C)C)C(=O)N[C@H](C(=O)NCC(N)=O)CSCC(=O)N[C@@H](Cc2ccccc2)C(=O)N(C)[C@@H](Cc2ccccc2)C(=O)N1C
notes: Macrocyclic peptide; X stands for norleucine
For B2, the IC50 with hPDL1(19-239)-TVMV-His [3] worked out at 7 nM.
Consider {CH2CO}-FLIVIRDRVFRCG-NH2 (thioether N-12), for which the “IFNγ secretion by CMV-specific T cells (ELISA), EC50” value with human PD-L1 on cells [4] is above 10000 nM.

B3: Compound No. 3 (peptide)
peptide: {CH2CO}-F[NMeA]NPHRSWRW[NMeNle][NMeNle]LCG-NH2
modifications: thioether N-14
SMILES: CCCC[C@H]1C(=O)N(C)[C@@H](CCCC)C(=O)N[C@@H](CC(C)C)C(=O)N[C@H](C(=O)NCC(N)=O)CSCC(=O)N[C@@H](Cc2ccccc2)C(=O)N(C)[C@@H](C)C(=O)N[C@@H](CC(N)=O)C(=O)N2CCC[C@H]2C(=O)N[C@@H](Cc2c[nH]cn2)C(=O)N[C@@H](CCCNC(=N)N)C(=O)N[C@@H](CO)C(=O)N[C@@H](Cc2c[nH]c3ccccc23)C(=O)N[C@@H](CCCNC(=N)N)C(=O)N[C@@H](Cc2c[nH]c3ccccc23)C(=O)N1C
notes: as for B2
B3 came in with an IC50 with hPDL1(19-239)-TVMV-His [3] of 13 nM.

B4: Compound No. 4 (peptide)
peptide: {CH2CO}-F[NMeA]NPLRSWRW[NMeNle][NMeNle]LCG-NH2
modifications: thioether N-14
SMILES: CCCC[C@H]1C(=O)N(C)[C@@H](CCCC)C(=O)N[C@@H](CC(C)C)C(=O)N[C@H](C(=O)NCC(N)=O)CSCC(=O)N[C@@H](Cc2ccccc2)C(=O)N(C)[C@@H](C)C(=O)N[C@@H](CC(N)=O)C(=O)N2CCC[C@H]2C(=O)N[C@@H](CC(C)C)C(=O)N[C@@H](CCCNC(=N)N)C(=O)N[C@@H](CO)C(=O)N[C@@H](Cc2c[nH]c3ccccc23)C(=O)N[C@@H](CCCNC(=N)N)C(=O)N[C@@H](Cc2c[nH]c3ccccc23)C(=O)N1C
notes: as for B2
B4 had an IC50 with hPDL1(19-239)-TVMV-His [3] of 15 nM.
For the molecule {CH2CO}-F[NMeA]NPHL[Sar]WSW[NMeNle][NMeNle]RCG-{PEG12′-NH2} (thioether N-14) [Compound No. 116], the concentration for half-maximal inhibition (IC50) in the assay with hPDL1(19-239)-TVMV-His [5] was found to be 21 nM.
{CH2CO}-F[NMeA]NPHHSWRW[NMeNle][NMeNle]LCG-{PEG12′-NH2} (thioether N-14) [Compound No. 117] came in with an IC50 with hPDL1(19-239)-TVMV-His [5] of 21 nM.
For the molecule {CH2CO}-F[NMeF][NMeNle][Sar]DV[NMeF]Y[Sar]WYLCG-{PEG12′-NH2} (thioether N-13) [Compound No. 118], in the assay with hPDL1(19-239)-TVMV-His [5], the IC50 stood at 3 nM.

B5: Compound No. 2 (peptide)
peptide: {CH2CO}-F[NMeA]NPHHSWRW[NMeNle][NMeNle]LCG-NH2
modifications: thioether N-14
SMILES: CCCC[C@H]1C(=O)N(C)[C@@H](CCCC)C(=O)N[C@@H](CC(C)C)C(=O)N[C@H](C(=O)NCC(N)=O)CSCC(=O)N[C@@H](Cc2ccccc2)C(=O)N(C)[C@@H](C)C(=O)N[C@@H](CC(N)=O)C(=O)N2CCC[C@H]2C(=O)N[C@@H](Cc2c[nH]cn2)C(=O)N[C@@H](Cc2c[nH]cn2)C(=O)N[C@@H](CO)C(=O)N[C@@H](Cc2c[nH]c3ccccc23)C(=O)N[C@@H](CCCNC(=N)N)C(=O)N[C@@H](Cc2c[nH]c3ccccc23)C(=O)N1C
Regarding B5, in the assay with human PD-L1 on cells [4], the “IFNγ secretion by CMV-specific T cells (ELISA), EC50” value stood at 400 nM.

B6: Compound No. 99 (peptide)
peptide: {CH2CO}-FLIVIRDRVFRCG-NH2
modifications: thioether N-12
notes: Macrocyclic peptide; parent of the Formula III series
With B6, the IC50 with hPDL1(19-239)-TVMV-His [3] and in the assay with hPDL1(19-239)-TVMV-His [6] was 153 nM throughout.

B7: Compound No. 111 (peptide)
peptide: FLIVIRDRFFRCG
HELM: PEPTIDE1{[O=C(C[*:3])[*:2]].F.L.I.V.I.R.D.R.F.F.R.C.G.[am]}$PEPTIDE1,PEPTIDE1,1:R3-13:R3$$$V2.0
SMILES: CC[C@H](C)[C@@H]1NC(=O)[C@H](CC(C)C)NC(=O)[C@H](Cc2ccccc2)NC(=O)CSC[C@@H](C(=O)NCC(N)=O)NC(=O)[C@H](CCCNC(=N)N)NC(=O)[C@H](Cc2ccccc2)NC(=O)[C@H](Cc2ccccc2)NC(=O)[C@H](CCCNC(=N)N)NC(=O)[C@H](CC(=O)O)NC(=O)[C@H](CCCNC(=N)N)NC(=O)[C@H]([C@@H](C)CC)NC(=O)[C@H](C(C)C)NC1=O
notes: Macrocyclic variant of Compound No. 99
As for B7, in the assay with hPDL1(19-239)-TVMV-His [6], the IC50 stood at 540 nM.

B8: Example 13011 (peptide)
peptide: {CH2CO}-Y[NMeA]NPHE[trans‑Pro(4-(4-fluorobenzyl))]W[Dab]W[NMeNle][NMeNle][Dab]CG-NH2
modifications: thioether N-14
SMILES: CCCC[C@H]1C(=O)N(C)[C@@H](CCCC)C(=O)N[C@@H](CCN)C(=O)N[C@H](C(=O)NCC(N)=O)CSCC(=O)N[C@@H](Cc2ccc(O)cc2)C(=O)N(C)[C@@H](C)C(=O)N[C@@H](CC(N)=O)C(=O)N2CCC[C@H]2C(=O)N[C@@H](Cc2c[nH]cn2)C(=O)N[C@@H](CCC(=O)O)C(=O)N2C[C@H](Cc3ccc(F)cc3)C[C@H]2C(=O)N[C@@H](Cc2c[nH]c3ccccc23)C(=O)N[C@@H](CCN)C(=O)N[C@@H](Cc2c[nH]c3ccccc23)C(=O)N1C
notes: X marks Dab and Nle
Regarding B8, the “CMV Recall EC50; IFNγ secretion by CMV-specific T cells” value in the assay with human PD-L1 on cells [7] was 0.0384 µM. In addition, the values for the IC50 with hPDL1(19-239)-TVMV-His [8] and with human PD-L1 on cells [9] were 9.87 nM and 2.69 nM, respectively.

B9: Example 13006 (peptide)
peptide: {CH2CO}-Y[NMeA]DPHK[Pro(cis-4-Ph)]WKW[NMeNle][NMeNle]ECG-NH2
modifications: thioether N-14
SMILES: CCCC[C@H]1C(=O)N(C)[C@@H](CCCC)C(=O)N[C@@H](CCC(=O)O)C(=O)N[C@H](C(=O)NCC(N)=O)CSCC(=O)N[C@@H](Cc2ccc(O)cc2)C(=O)N(C)[C@@H](C)C(=O)N[C@@H](CC(=O)O)C(=O)N2CCC[C@H]2C(=O)N[C@@H](Cc2c[nH]cn2)C(=O)N[C@@H](CCCCN)C(=O)N2C[C@@H](c3ccccc3)C[C@H]2C(=O)N[C@@H](Cc2c[nH]c3ccccc23)C(=O)N[C@@H](CCCCN)C(=O)N[C@@H](Cc2c[nH]c3ccccc23)C(=O)N1C
notes: X marks Nle
B9: the “CMV Recall EC50; IFNγ secretion by CMV-specific T cells” value with human PD-L1 on cells [7] came out at 0.0272 µM. Further, the results for the IC50 in the assay with hPDL1(19-239)-TVMV-His [8] and in the assay with human PD-L1 on cells [9] were 4.11 nM and 1.47 nM, respectively.

Source of the values: patent publication US20140294898A1 (published 2014).
